From paper PMC4395295

What was measured:
[1] = target: ZEN-4 1-585mAG (C. elegans)
[2] = target: VenusZ435-555 (ZEN-4 neck and coiled coil with the motor domain replaced by Venus) (C. elegans); assay: SDS-PAGE and densitometry of the purified complex; band intensities of the ZEN-4 and CYK-4 fragments, staining assumed proportional to molecular weight
Chain of VenusZ435-555 (ZEN-4 neck and coiled coil with the motor domain replaced by Venus) (C. elegans) (main, as listed by the source): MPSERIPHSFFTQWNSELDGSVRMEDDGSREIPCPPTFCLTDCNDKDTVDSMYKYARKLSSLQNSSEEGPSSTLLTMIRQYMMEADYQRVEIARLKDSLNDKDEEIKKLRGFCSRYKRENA

## CYK-4 1-120 (domain or fragment)
[1]
  microtubule gliding velocity of surface-immobilised Z585mAG co-purified with C120 (180 nm/s for Z585mAG alone): 30 nm/s
[2]
  stoichiometry N (C120 per ZEN-4 fragment): 0.94
